Measured values as given in US11135163B2, “Peptide hydrogel properties and its applications” (Kansas State University Research Foundation, priority 2014, dated 2021).

Experiments:
HeLa cells = assay: HeLa cell viability (CCK-8) in 3D h9e hydrogel; assay type: cell-based; details: 3-day treatment, various concentrations of camptothecin, in h9e hydrogel
Protocol: Cell culture and drug efficacy/diffusion tests: HeLa cells were grown in the hydrogel in 3D. Aliquots of HeLa cells solution were added into […] hydrogel with DMEM containing 10% FBS with a final peptide concentration of 0, 0.25, 0.5 and 1 wt %. 100 μl of cell mixture solution (3×10^4 cells per well) was seeded into a 96-well culture plate (Becton Dickinson Labware, Franklin Lakes, N.J.) and placed in an incubator (Nuair, Playmouth, Minn.) in a humidified 5% CO2 atmosphere at 37° C. for about 30 min. After complete hydrogelation, 10 μl of DMEM containing 0, 50 uM, 100 uM, or 200 uM camptothecin was added on top of the hydrogel to obtain camptothecin concentrations of 0 μM, 3.125 μM, 6.25 μM, and 12.5 μM, respectively, upon total diffusion in the hydrogel. Then, 50 ul of DMEM was carefully added to the top of the hydrogel to prevent drying during long-term incubation. All measurements were made at least in triplicate, and the plates were incubated for 3 days. A CCK-8 assay was used to determine cell viability after each treatment. 10 μL of CCK solution was added to each well. After 4 h of incubation, the absorbance at 450 nm was collected on a microplate reader (mQuant, Bio-Tek) and corrected by subtracting the background signal from a wall containing only 160 ul DMEM containing 10% FBS. […]

[1] = Gelation test of ECM ligand built-in or blended hydrogels; assay type: physicochemical; details: 0.5% peptide solution triggered with 0.5% BSA solution, 37° C., 30 min
Protocol: In this Example, an ECM ligand RGD built-in peptide (i.e., FLIVI-GSII-GPGGDGPGGDGRGD (SEQ ID NO:69)) was formulated into a hydrogel at 0.5% peptide solution triggered with 0.5% BSA solution. Gelation test was performed at 37° C. for 30 min. Gel strength was about 500 Pa, similar as the regular h9e hydrogel (FIG. 18.). Peptide synthesis followed the same procedure described in Example V.
Rheology Measurements: The hydrogel samples were characterized for mechanical properties. Gelation was determined right after the peptide solution triggered using either metal ion (i.e., Ca++) or albumin proteins (i.e., BSA) using C-VOR 150 rheometer system at both room temperature and 37° C. following our previous procedure. The maximum gel strength after 24 hours was used as the gel strength. The hydrogel samples after 24 hours was used and loaded in the probe system, and examined at a single frequency (1 Hz) and steady shear strain (1%). For shear-thinning experiments, the samples were subjected to shear and then observe the strain of the storage (G′) and loss (G″) modulus as a function of time following our previous procedures.
Regular h9e peptide described in Example VI can be blended with ECM ligands and functional proteins. […]

[2] = Instantaneous gelation time sweep of peptide sequences 1, 3 and 4; assay type: physicochemical; details: for final gel strength after 30 minute gelation time sweep: triggered with 100 mM CaCl2 solution (FIG. 12, 13)
Protocol: Similar to the methods used in U.S. 2013/0018004. Hydrogels were prepared with peptide 1, 3, and 4 alone, or mixture of peptide sequence 1 and 4 at 1:1 ratio. Hydrogels were triggered by calcium ions and BSA alone or co-trigger (calcium ions+BSA).

Compound | hydrogel formation [2] | final gel strength after 30 minute gelation time sweep [2] [Pa] | also measured
CC[C@@]1(O)C(=O)OCc2c1cc1n(c2=O)Cc2cc3ccccc3nc2-1 [Camptothecin, reference compound] | – | – | HeLa cell viability (HeLa cells): dose-dependent decrease in cell viability
FLIVI-GSII-GPGGDGPGGDGRGD (FLIVIGSIIGPGGDGPGGDGRGD; FLIVI-GSII N-terminal extension; Derivative of spider flagelliform silk protein and a trans-membrane segment of subunit IV in the dihydropyridine sensitive human muscle L-type calcium channel with built-in ECM ligand) [SEQ ID NO:69] | – | – | Gel strength [1]: about 500 Pa
FLIVIGSIIGPGVDPGGAD (Derivative of spider flagelliform silk protein and a trans-membrane segment of subunit IV in the dihydropyridine sensitive human muscle L-type calcium channel) [Sequence 4] | yielded a peptide hydrogel | 496 | gel strength ([2]; triggered with BSA): about 150 Pa; gel strength ([2]; triggered with calcium): about 550 Pa
FLIVIGSIIPGGGDGPGGD (Derivative of spider flagelliform silk protein and a trans-membrane segment of subunit IV in the dihydropyridine sensitive human muscle L-type calcium channel) [Sequence 3] | yielded a peptide hydrogel | 196 | –
